These results are taken from IntAct's records for PubMed 11842245.

B1: Protein Rep68 (Adeno-associated virus 2 (isolate Srivastava/1982)), P03132 (parent)
chain: MPGFYEIVIKVPSDLDGHLPGISDSFVNWVAEKEWELPPDSDMDLNLIEQAPLTVAEKLQRDFLTEWRRVSKAPEALFFVQFEKGESYFHMHVLVETTGVKSMVLGRFLSQIREKLIQRIYRGIEPTLPNWFAVTKTRNGAGGGNKVVDECYIPNYLLPKTQPELQWAWTNMEQYLSACLNLTERKRLVAQHLTHVSQTQEQNKENQNPNSDAPVIRSKTSARYMELVGWLVDKGITSEKQWIQEDQASYISFNAASNSRSQIKAALDNAGKIMSLTKTAPDYLVGQQPVEDISSNRIYKILELNGYDPQYAASVFLGWATKKFGKRNTIWLFGPATTGKTNIAEAIAHTVPFYGCVNWTNENFPFNDCVDKMVIWWEEGKMTAKVVESAKAILGGSKVRVDQKCKSSAQIDPTPVIVTSNTNMCAVIDGNSTTFEHQQPLQDRMFKFELTRRLDHDFGKVTKQEVKDFFRWAKDHVVEVEHEFYVKKGGAKKRPAPSDADISEPKRVRESVAQPSTSDAEASINYADRLARGHSL
partner: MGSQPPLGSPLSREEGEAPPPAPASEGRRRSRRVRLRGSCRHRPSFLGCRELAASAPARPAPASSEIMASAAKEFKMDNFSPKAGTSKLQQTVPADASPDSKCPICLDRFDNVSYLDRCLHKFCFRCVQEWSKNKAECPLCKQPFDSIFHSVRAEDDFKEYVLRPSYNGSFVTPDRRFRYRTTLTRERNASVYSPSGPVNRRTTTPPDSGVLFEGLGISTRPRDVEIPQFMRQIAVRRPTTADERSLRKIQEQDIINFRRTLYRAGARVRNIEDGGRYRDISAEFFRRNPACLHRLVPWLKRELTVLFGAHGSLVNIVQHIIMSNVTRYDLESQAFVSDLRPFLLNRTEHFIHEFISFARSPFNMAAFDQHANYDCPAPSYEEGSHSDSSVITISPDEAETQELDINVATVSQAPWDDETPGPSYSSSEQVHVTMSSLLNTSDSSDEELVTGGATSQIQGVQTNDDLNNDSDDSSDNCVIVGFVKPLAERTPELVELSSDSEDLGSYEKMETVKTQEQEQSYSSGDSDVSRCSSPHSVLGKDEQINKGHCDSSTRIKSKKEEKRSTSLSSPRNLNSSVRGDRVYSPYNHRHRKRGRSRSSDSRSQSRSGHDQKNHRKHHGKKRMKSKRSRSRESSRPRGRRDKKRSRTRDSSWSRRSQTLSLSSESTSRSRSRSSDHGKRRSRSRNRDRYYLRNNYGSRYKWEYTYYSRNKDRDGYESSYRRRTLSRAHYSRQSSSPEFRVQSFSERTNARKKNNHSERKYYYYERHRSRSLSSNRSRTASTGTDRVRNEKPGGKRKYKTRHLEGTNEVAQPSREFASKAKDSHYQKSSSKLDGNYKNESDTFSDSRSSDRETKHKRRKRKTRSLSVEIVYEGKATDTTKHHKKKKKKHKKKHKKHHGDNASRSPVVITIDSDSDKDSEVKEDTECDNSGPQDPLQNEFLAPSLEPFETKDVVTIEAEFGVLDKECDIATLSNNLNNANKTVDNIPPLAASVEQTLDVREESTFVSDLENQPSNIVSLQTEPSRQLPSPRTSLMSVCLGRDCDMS

In this assay the parent is B1. The settings on record: with toprs_human TOPORS.
Regarding K340H, the “effect of a mutation on the interaction” value is “increasing interaction”.
